Reference: the supplement of paper PMC9170038

System: K4 kissing-loop RNA reporter
Assay: apparent KD of K4 kissing-loop reporter; higher = weaker reporter binding
Settings: Eterna round: R107; input ligand: arginine 13.2 mM
Protocol: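 RNA-MaP round R107: designed RNA switches with theophylline, tryptophan, arginine or FMN aptamers are transcribed on-chip within common flanks. They are titrated with a labelled K4 kissing-loop RNA reporter in RNA-MaP buffer (100 mM Tris pH 7.5, 80 mM KCl, 4 mM MgCl2), without ligand or with the indicated ligand. Median apparent KD per design.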
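Further: bound reporter read as fluorescence of individual clusters on recovered sequencing chips by microscopy, with normalized cluster intensities fitted with a binding model.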

Sequence | apparent KD of K4 kissing-loop reporter [nM]
CCGUGGAGUGAUGUUCCACGUACUACGGAUACCAGCUUUGCCAAAGGCCCUUGGCAGCCGCACGGCUCAGUGAUGUUGGGUCGCG [Same State Theophylline A G10] | 153
GUAGAUAGGCAACAUCCCUAGUCUACAGACUAGGAUAUCAGGAAACUGAGAAGGAGUCUCCUUGCAGUGAUGUUGCAAGAAUAAU [[F]''-[K]'-[F]'-[F1]-[F2]-[K1]-[K2]_Design5] | 181
UGACUACAGGAAUAAUAAUCCUAGUGAUGUUAGGAUAUGCUGAUAAGCAGAAGGAACUGAGAUCGAAAGAUCUCAAAAGUAGUCU [FmnAX 28 Mat Inspired #SwitchBubble #StaticStem #K4Early] | 89.3
CGGAACGCAUCGGCCGCCACUUUUAUCUGCAGUGAUGUUGCAGUAUCCGAGCAAGGCUGUUGUGAAAGGACCGGGAUGGUCCGUU [Tibeberi] | 96.6
AACUCUCAGACACUUGAGUGAUGUUCGGGCCGAGGACCGGUACGGCCGCCACUCGGGUCUGAGAGAGGUUAUCAAAGAUAGCCAA [Omei KL Tryp A SS A v9] | 87.3
GUAUCGCUAGGAGGAUAUUUCAAAUAAUAAAUAAAUGGAUAUACGGAGUGAUGUUCCGAUUUACGGAAAGAAGGCCUAGUGAUAC [FMN B 1] | 179
GAGAUAGAGGCGGCCGCCACUAGUGAUGUUAGUGAUGUUAGAAAGAGAAUAGAACAGGGAUUUGAUAGGACCGGGCCAGAUGGAG [wwemullin] | 51.3
UGUACCGAGUCAGGAUAUGCCGUCGAAAGACGAAAGCAGUGAUGUUGCAUCGAUCGAAAGAUCGUUGCAGAAGGGACUUGGUACU [FmnBS 23 #SwitchBubble #StaticStem #DoubleMagnetSystem] | 164
UUUAUAAAGUCGGCCGCCACUGGAUUUAUAUUUGUUUAGUCUGGAUCAAAGUGAUGUUUUGAGUCCAGGACCGGGACAUUUGUUA [whbob_Ex_Tryp_B_w36] | 85.9
AGAGAUAUAUGAGGAUAUGAGAUAGUUAAUGAGUGAGUUAUAGUGUUGUUUGGUUAGUGAUGUUAUUUAGAAGGCGUGAGUGAUG [immumullin] | 94.7
AUUAAUAUCACGGCCGCCACUGUAUAUUGUUUUUAUAUUUAGAAUAAUUGCCAGUGAUGUUGGAACAGGACCGGGUGAGUUUAUA [#28 K4 Tryptophan B Same State] | 434
UUAGUCUAGAGAAGGAGCGCAGUGAUGUUGCGAAUAAUAAUAAUAAUAAAUAAAUAAUCGAUGCAGGUAGGUCGCUCUAGACAUU [AK1 Exc Arginine B] | 422
GAUAUAGUGAUGUUAUAUACUGAUAGACAACGAGGACCGGUACGGCCGCCACUCGAGAGGGUGAAAAUGAUGAUAAAAUAAUAAU [#01 K4 Tryptophan A Exclusion] | 283
CCAACGUGAAAAGGAUAUCGCGAUGUGCACGACUAGUGAUGUUAGGAGAGGCUCGUUGAAUUGUACCGAGAAGGUUUUGAGUGGG [theeternabot_sameState_KL_FMN_B_16] | 160
GCGGCGGGCCAAGGAUAUAUAUUGGAGUGAUGUUGUUCAUUUAUUUGAGCUAGUGAUGUUGGUCAAAUAGAAGGUGGCCCGCCGC [whbob_Ex_FMNB__2th217] | 34.6
AGACUACUGAUAGGAUAUAACAUCCUAGUCGUAUACCGAAAGGUAUACGAUUCCCUUCUAGUGAUGUUAGAAGGGUCGGUAGUCA [Omei KL FMN B Exc B v12] | 69.2
CGUUUAUUGCAGGAUACCAGUACCCAUUAUGUACGUUUAUAGUAGAGUGAUGUUCUAAAGUACCCUUGGCAGCUUCCCGUGACCC [#22 K4 Theophylline B Exclusion] | 193
AGUGUGCAAAAGCACACUCAGAACAAGGACAAGGAUAUCUACUAAUAGAGAAGGUGUCCUUUCCUUAGUGAUGUUAAGGAUCUGA [Omei KL FMN A SS D v4] | 424
UAGUCCUAGUGAUCCUUAUCAAGUGGUGGGCGAGGACCGGUACGGCCGCCACUCGAAUAUGCAGUGAUGUUGUAAUCCGGAUAAU [Exclusion - Tryptophan A (Freestyle 10)] | 511
CCCUCACGAGUGAUGUUCGUAGGGUACAGUCAGGAUAUCAUGCGGUUGAGAAGGGACAGAGAGGGCGGCGGCGGGUUGCUCCUCU [Beeded] | 240
GGUAGCAUGGCGGCCGCCACUGGAGAGUGAUGUUCUCCACUAGGUUACAACGCCGGACAGUCCACCAGGACCGGGCCAUGCUACC | 106
UGACUGGACUGAAGGAGCGGGCGAGACAAAGUCUCGAACUCCUAGUGAUGUUAGGAAAUAACCCAGGUAGGUCGCAGUCUAGUCU [ArgBS 7 #SwitchBubble #StaticStem #DoubleMagnet] | 104
UUAGAGAUCUCAGGAUAUCAGUGAUGUUGGUAUCAAGAUCUGAGAUAGAAUUCUAUCUCAGAUCAAUGAGAAGGGAGAUCUCAUU [AK3.3 Exc FMN B] | 110
GGGCGUGGCGCGGCCGCCACUGGGCCUGGGCGCUCGCUGAGUGAUGUUCGUCGGCGGCUGGGUCGUAGGACCGGGUGCUGGUUGG [BDazzled - #7 SS Tryptophan B] | 309

Same assay, conditions: Eterna round: R107; input ligand: none

Sequence | apparent KD of K4 kissing-loop reporter [nM]
AAAAGAAGAAGUGAUACCAGACAAGCAGUGAUGUUGCGCCAAAGUGAGUGAUGUUCACCAGUCCCUUGGCAGCACAUGCCAAAAG [Same State Theophylline B GF 5] | 668
CAUGGAGUGAUGCUCCAUGGUCGGGCUUGGCAGGAUAUGGGAUCUUCCAGAAGGGCCGAUCCCGGCGAGUGAUGUUCGCUGGUCU [Exclusion FMN A GF 28] | 316
CACUCGGUAUCAGAUACCAGACUAACGAUACCGAGUGUAUCGGGUAGUGAUGUUACCAUAGUCCCUUGGCAGCUGAUAUUCCCUA [Theo B SS t9a] | 258
UUGUUUGGUUGAGAGGUUGGGCGAGAUGAUACCAGUAUAUAAGAAUACCCUUGGCAGCAUAAGAAAGAUAUAGUGAUGUUGUAUA [SSTheophA.M] | 645
AUAUGCAGGAGAAGGAGCGUCGUUGCAAGUGAUGUUUGCAAGCGAGCUUACUAUAUACGACGACAGGUAGGUCGCUCCUGCGUAA [Arg B Ex t2] | 64.8
UUAGGAGUGGAAGGAUAUCCUGGUGUGGGUGAUGUUAGUGAUGUUGGAGGUGCAGUGAUGUUGCGCGGAGAAGGUCCGGUGUUGA [BDazzled - #5 - Exc. FMN B] | 372
UUAGCGACAAGUCAGAUUCUGACAAUUGAUACCAGAUAGAAUUCUAUCCCUUGGCAGCAGUGAUGUUGUUGCAAUAAGUCGCAUU [AK2 Exc Theophylline A] | 317
CCGUGGAGUGAUGUUCCACGUACUACGGAUACCAGCUUUGCCAAAGGCCCUUGGCAGCCGCACGGCUCAGUGAUGUUGGGUCGCG [Same State Theophylline A G10] | 172
GUAGAUAGGCAACAUCCCUAGUCUACAGACUAGGAUAUCAGGAAACUGAGAAGGAGUCUCCUUGCAGUGAUGUUGCAAGAAUAAU [[F]''-[K]'-[F]'-[F1]-[F2]-[K1]-[K2]_Design5] | 200
UGACUACAGGAAUAAUAAUCCUAGUGAUGUUAGGAUAUGCUGAUAAGCAGAAGGAACUGAGAUCGAAAGAUCUCAAAAGUAGUCU [FmnAX 28 Mat Inspired #SwitchBubble #StaticStem #K4Early] | 92.9
CGGAACGCAUCGGCCGCCACUUUUAUCUGCAGUGAUGUUGCAGUAUCCGAGCAAGGCUGUUGUGAAAGGACCGGGAUGGUCCGUU [Tibeberi] | 92.7
AACUCUCAGACACUUGAGUGAUGUUCGGGCCGAGGACCGGUACGGCCGCCACUCGGGUCUGAGAGAGGUUAUCAAAGAUAGCCAA [Omei KL Tryp A SS A v9] | 153
GUAUCGCUAGGAGGAUAUUUCAAAUAAUAAAUAAAUGGAUAUACGGAGUGAUGUUCCGAUUUACGGAAAGAAGGCCUAGUGAUAC [FMN B 1] | 194
GAGAUAGAGGCGGCCGCCACUAGUGAUGUUAGUGAUGUUAGAAAGAGAAUAGAACAGGGAUUUGAUAGGACCGGGCCAGAUGGAG [wwemullin] | 48.9
UGUACCGAGUCAGGAUAUGCCGUCGAAAGACGAAAGCAGUGAUGUUGCAUCGAUCGAAAGAUCGUUGCAGAAGGGACUUGGUACU [FmnBS 23 #SwitchBubble #StaticStem #DoubleMagnetSystem] | 244
